Article PMC7730289, “Development of a CD63 Aptamer for Efficient Cancer Immunochemistry and Immunoaffinity-Based Exosome Isolation”

Key:
HER2 = HER2 (Homo sapiens (Human), UniProt P04626 23-652); experiment: ELISA; PBS pH 7.4, 2.0 mM MgCl2, 0.02% Tween 20, 100 ug/mL salmon sperm DNA; ELISA 0.5 h; cells at RT 1 h (Methods) or 37 C 30 min (Results); details: protein: commercial
[1] = biological target: T1, CD63 large extracellular domain, recombinant (Homo sapiens, UniProt P08962 103-203); experiment: as above; details: protein: commercial, tags: C-terminal His
T1 sequence (P08962 103-203): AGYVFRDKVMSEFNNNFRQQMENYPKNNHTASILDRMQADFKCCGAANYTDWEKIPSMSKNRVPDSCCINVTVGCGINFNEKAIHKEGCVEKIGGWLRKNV

[2] = biological target: T1, CD63 large extracellular domain, …; experiment: ELISA; 200 nM aptamer; PBS pH 7.4, 2.0 mM MgCl2, 0.02% Tween 20, 100 ug/mL salmon sperm DNA; ELISA 0.5 h; cells at RT 1 h (Methods) or 37 C 30 min (Results); details: protein: commercial; tags: C-terminal His; label: biotin

TAACACGACAGACGTTCGGAGGTCGAACCCTGACAGCGTGGGC (ssDNA) [CD63-1]
binding result (HER2; label: 5' or 3' biotin (ELISA)): no binding | Kd ([1]; label: 5' or 3' biotin (ELISA)): 38.7 nM

TAACCACCCCACCTCGCTCCCGTGACACTAATGCTAATTCCAA (ssDNA) [CD63-2]
binding result (HER2; label: biotin (ELISA)): no binding | Kd ([1]; label: biotin (ELISA)): 78.4 nM

TACCTACGACATGCCTGTGCTAGCCGAACCATGCTGAGGTCGT (ssDNA) [CD63-6]
binding result [2]: no binding
